The text below walks through data of PMC9213253 (The Journal of Biological Chemistry, 2022).

One data set concerns the target AstC (ACIAD1284) (Acinetobacter baylyi, UniProt Q6FCQ2). As to conditions: 10 mM DAP; 5 mM 2-oxoglutarate; 200 μM PLP; 200 μM NAD+; pH 9.0; 25 °C.
A further data set concerns the target Dat (ACIAD1210) (Acinetobacter baylyi, UniProt Q6FCX2). As to conditions: 10 mM DAP; 5 mM 2-oxoglutarate; 200 μM PLP; 200 μM NAD+; pH 9.0; 25 °C.
Substrate in data set [1]: NC(=O)c1ccc[n+]([C@@H]2O[C@H](COP(=O)(O)OP(=O)(O)OC[C@H]3O[C@@H](n4cnc5c(N)ncnc54)[C@H](OP(=O)(O)O)[C@@H]3O)[C@@H](O)[C@H]2O)c1
Briefly: purified protein. The settings on record: pH 9.0, 25 °C, varied: cofactor.

Substrate in data set [2]: NC(=O)c1ccc[n+]([C@@H]2O[C@H](COP(=O)(O)OP(=O)(O)OC[C@H]3O[C@@H](n4cnc5c(N)ncnc54)[C@H](O)[C@@H]3O)[C@@H](O)[C@H]2O)c1
Briefly: purified protein. As to conditions: pH 9.0, 25 °C, varied: cofactor.

Substrate in data set [3]: NCCC=O
As to the kind of experiment: purified protein. The settings on record: pH 9.0, 25 °C.

Substrate in data set [4]: O=C(O)CCC(=O)C(=O)O
As to the kind of experiment: purified protein. As to conditions: 4 mM GABA, 200 μM PLP, 5 mM NAD+, pH 9.0, 25 °C.

Substrate in data set [5]: NCCCC(=O)O
As to the kind of experiment: purified protein. The settings on record: 500 μM 2-oxoglutarate, 200 μM PLP, 5 mM NAD+, pH 9.0, 25 °C.

Substrate in data set [6]: NCCCN
Briefly: purified protein. The settings on record: 200 μM PLP.

Substrate in data set [7]: NCC[C@H](N)C(=O)O
Briefly: purified protein. As to conditions: 100 mM Tris-HCl pH 8.5, 200 μM PLP, 2.5 mM CaCl2, 25 °C. The data set is classed as biochemical, Acinetobacter baylyi.

Where [8] appears, read: 500 μM 2-oxoglutarate, 5 mM NAD+, pH 9.0, 25 °C.
Setting [9] is: 1 mM NAD+, BetB, 2.5 mM CaCl2, pH 9.0, 25 °C.

Dat (ACIAD1210), sequence (Q6FCX2 1-456): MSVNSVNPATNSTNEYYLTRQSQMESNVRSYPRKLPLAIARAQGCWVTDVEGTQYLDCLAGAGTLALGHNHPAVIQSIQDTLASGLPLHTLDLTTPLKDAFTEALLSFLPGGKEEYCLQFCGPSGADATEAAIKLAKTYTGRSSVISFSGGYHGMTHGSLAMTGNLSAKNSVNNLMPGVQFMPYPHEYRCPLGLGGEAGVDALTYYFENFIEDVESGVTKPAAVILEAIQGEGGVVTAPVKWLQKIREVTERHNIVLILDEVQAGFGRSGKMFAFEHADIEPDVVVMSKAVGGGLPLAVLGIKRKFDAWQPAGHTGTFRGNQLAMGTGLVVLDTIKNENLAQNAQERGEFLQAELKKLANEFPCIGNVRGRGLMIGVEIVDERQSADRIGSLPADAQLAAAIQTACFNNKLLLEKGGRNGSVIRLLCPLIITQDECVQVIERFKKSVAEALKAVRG
AstC (ACIAD1284), sequence (Q6FCQ2 1-403): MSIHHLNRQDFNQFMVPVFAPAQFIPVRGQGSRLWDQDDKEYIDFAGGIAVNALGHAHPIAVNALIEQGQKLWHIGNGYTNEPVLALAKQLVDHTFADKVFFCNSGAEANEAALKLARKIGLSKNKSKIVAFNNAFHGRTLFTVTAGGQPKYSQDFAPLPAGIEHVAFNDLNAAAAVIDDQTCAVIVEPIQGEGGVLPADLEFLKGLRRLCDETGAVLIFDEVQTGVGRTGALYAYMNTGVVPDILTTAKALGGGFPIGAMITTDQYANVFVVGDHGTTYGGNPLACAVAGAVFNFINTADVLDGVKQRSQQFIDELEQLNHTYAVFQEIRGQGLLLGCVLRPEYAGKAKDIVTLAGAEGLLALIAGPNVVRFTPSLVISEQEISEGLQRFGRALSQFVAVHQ

On to `NCCCN` [DAP], for which the “BetB-coupled assay, NADH at 340 nm (aminotransferase)” value on AstC (ACIAD1284) is “activity of AstC and Dat was too low to determine their kinetic parameters”; on Dat (ACIAD1210), “activity of AstC and Dat was too low to determine their kinetic parameters”.

B1: BetB (ACIAD1009) (Acinetobacter baylyi ADP1) (protein)
chain: MSDVKLHRLYIHGQYTDATSGKTFDSINPATGEVIATIQQASQTDIEAAVKSAAEGQKVWAAKTAVERSRILRRAVDILRERNDELAQLETLDTGKAFSETSTVDIVTGADVLEYYAGLATAIQGEQVPLRESSFFYTRREPLGVVAGIGAWNYPIQIALWKSAPALAAGNAMIFKPSEVTPLTAFKLAEIYSEAGLPAGVFNVVQGAGREIGQWLTEHAVIEKISFTGGVETGKKVMASAAGSTLKEVTMELGGKSPLIICEDANLDRAADIAVMANFFSSGQVCTNGTRVFIPQRLKAAFEQAVVERVKRIRMGDPQHTDTNFGPLVSFPHMEKVLSYIESGKQQGAKVLIGGERATTGLLAQGAYVQPTVFTDCHDDMKIVQEEIFGPVMSILTYDTIEEAIERANNTNFGLAAGVVTQNISQAHQIIHQLEAGICWINTWGESPAEMPVGGYKESGVGRENGISTLNHYTRTKSIQVELGDYQSVF
By Km is commonly meant the concentration of substrate that gives half-maximal velocity. Usually kcat stands for the number of substrate molecules converted per active site and unit of time at saturation. For orientation: kcat/Km means the turnover number divided by the Michaelis constant. Consider B1, for which the Km amounted to 339 ± 67 µM in “purified protein [1]” (2.5 mM 3AP), 20 ± 4 µM in the data set “purified protein [2]” (2.5 mM 3AP) and 82 ± 17 µM in the data set “purified protein [3]” (2 mM NAD+). For the same molecule, the kcat in “purified protein [1]” (2.5 mM 3AP) was 2.43 ± 0.12 s⁻¹; in the data set “purified protein [3]” (2 mM NAD+), 1.48 ± 0.16 s⁻¹. The kcat/Km is 7200 M⁻¹ s⁻¹ in “purified protein [1]” (2.5 mM 3AP), 74000 M⁻¹ s⁻¹ in the data set “purified protein [2]” (2.5 mM 3AP) and 18000 M⁻¹ s⁻¹ in the data set “purified protein [3]” (2 mM NAD+).

B2: GabD-like (ACIAD0960) (Acinetobacter baylyi ADP1) (protein)
chain: MAYATVNPYTGETLKEFPFATEQEVKAAIDAGYTAFTTWKDSSFATRAEVLNKAAKILRDKTDYYAKFLTLEMGKLFKEAQGEVEICAQIFEYYAKHAEELLAPTKLSTANKEINATIYYEPQGIVMAVEPWNFPFYQIARILSAQLAAGNTVILKHASIVPQSANAFEQLLLDAGLPQGAFKNLYMQHEHIPLVLNDHRVCGVALTGSEGAGAEVAAHAGKALKKSTLELGGSDAFIVLKDADLEKTAQLAVSGRHSNAGQVCTASKRFIVVDEVYDQFVELYKQGVAKLKAGDPMDPDTTLAPLCSQDAADQLKKQVEKAKAAGATVEAIGAPVPEQGAFFQPLLMTDIQEDNEARYWEFFGPVTQLYRAKDEADAIRIANDSPFGLGGSVYTADHARGVEVAKQIHTGMVYINHPTTSQADLPFGGVGRSGYGRELIDLGLKEFVNHKLIAITDIDAKL
In the case of B2, in the data set “purified protein [1]” (15 mM 3AP), the Km came out at 3718 ± 1138 µM and the specificity constant (kcat/Km) was 1000 M⁻¹ s⁻¹. Besides, in “purified protein [2]” (15 mM 3AP), the Km worked out at 4507 ± 363 µM, the kcat is 1.68 ± 0.04 s⁻¹ and the kcat/Km amounted to 370 M⁻¹ s⁻¹.

B3: AcoD (ACIAD2018) (Acinetobacter baylyi ADP1) (protein)
chain: MRYIDPNQPGSKVQFKAQYENFIGGQWVPPVKGEYFGNSSPVDGKVFTQIPRSSVEDIELALDAAHKAKADWNKASPTVRSNVLLKIADRLEENLELLAVAETWENGKPIRETLAADIPLAIDHFRYFAGCIRAQEGGISEIDEDTIAYHFHEPLGVVGQIIPWNFPILMAAWKLAPALAAGNCIVLKPAEQTPSSILVLAELIQDLLPPGVLNIVNGYGAEVGRPLATNPRISKIAFTGSTKVGQMIMQYATENIIPVTLELGGKSPNIFFEDILDKEDDYLEKTLEGFAMFALNQGEVCTCPSRALVQESIADKFLEMAVERVKRIKTGHPLDTETMIGAQASKQQFDKILGCIDTGRNEGAQLLTGGDARHDVDGGFYIEPTIFKGNNSMKIFQEEIFGPVLSVTTFKDFDDAMRIANDTIYGLGAGVWSRSAHTSYRAGRAIEAGRVWTNCYHLYPAHAAFGGYKQSGIGRENHRMMLDHYQQTKNLLVSYSTKPMGFF
Consider B3, for which, in “purified protein [2]” (20 mM 3AP), the Km is 124 ± 49 µM and the specificity constant (kcat/Km) was found to be 13000 M⁻¹ s⁻¹. In the data set “purified protein [3]” (2 mM NAD+), the Km was determined as 3559 ± 755 µM, the kcat was 1.55 ± 0.35 s⁻¹ and the specificity constant (kcat/Km) turned out to be 440 M⁻¹ s⁻¹.

B4: AdhA (ACIAD3339) (Acinetobacter baylyi ADP1) (protein)
chain: MGSLMKAAVVTAFNQPLEIKDVEIPKVTSGKVLVKMIATGVCHTDLHAMHGDWPIKPSLPFIPGHEGVGEVVEIGEGITHLKIGDTVGVPWLYSACGHCDHCYAGWETLCKQQQNSGYSVNGSFAEYCLADGEYVGVIPEGVDLLEIAPILCAGVTVYKGLKMTEAKTGDWVAISGIGGLGHVAVQYAKTMGFNVVAIDVDDSKLELAKQLGADVGINALKVDVKEEVLKATGEGCHGVLVTAVSPKAFEQAVSVVRRGGTMVLNGLPPGKFDLSIFDMVLDGITVRGSIVGTRLDLKEALDIAARGKVKAHISVEPLENINDIFERMEQGKIDGRIVIDLKL
As to B4, in the data set “purified protein [2]” (2 mM 3AP), the Km is 1803 ± 305 µM and the kcat/Km is 520 M⁻¹ s⁻¹. Further, in the data set “purified protein [3]” (9 mM NAD+), the Km was 141 ± 28 µM.

B5: GabT (ACIAD3446) (Acinetobacter baylyi ADP1) (protein)
chain: MDTKHSALNQRKQQATPRGVGVMCQWYADKAENATIWDAEGNTYIDFAGGIAVLNTGHRHPKVLAAVKAQLERFTHTAYQVTPYESYVALAERINELAPIAGPAKTTFFTTGAEAVENAVKIARCYTGRQGIITFGNGFHGRSFMTMAMTGKTAPYKRDFGLMPGGVFHARYPVESRGISVDDALESIENIFSEDVAPHDVAAIVLEPVQGEGGFNVVPADFLKRLRALCDKHGILLVADEVQTGFARTGKLYAMDHYETKADLITMAKSLGGGFPISGVVGRAEVMDAPNPGGLGGTYAGNPVAVAAAHAVIDAIQEEKLCERANELGAELVHVLKGLQQSTDQVITDIRALGSMVAAEFETAEQAKAVQNYAMQNGLLLLTCGKYGNVIRFLYPLTIPVEQFRSGLDILKQGVASLATDHTTQAIG
Turning to B5, in “purified protein [4]”, the Km is 58 ± 7 µM and the kcat/Km was found to be 8300 M⁻¹ s⁻¹. In “purified protein [5]”, the Km is 399 ± 40 µM, the turnover number (kcat) is 0.48 ± 0.021 s⁻¹ and the kcat/Km came out at 1200 M⁻¹ s⁻¹. Besides, in the data set “purified protein [6]” (setting [8]), the Km is 4356 ± 1014 µM, the kcat amounted to 0.22 s⁻¹ and the kcat/Km was found to be 51 M⁻¹ s⁻¹.

B6: Ddc (ACIAD1211) (Acinetobacter baylyi ADP1) (protein)
chain: MVDFAEHRKALLCNDAASIAEYQSAMDEAVKAVAAWLQNDKMYTGGSIKELRSAIAFNPSKEGLGLHQSLGRMVELFLNKSLKVHHPYSLAHLHCPTMVTSQIAEVLINATNQSMDSWDQSPAGSLMEVQLIDWLRQKVGYGVGQAGVFTSGGTQSNLMGVLLARDWAIAKNFTDENGQPWSVQRDGIPAEAMRNIKVICSENAHFSVQKNMAMMGMGFQSVVTVPVNENAQMDVDALEKTMSHLQSEGKIVACVVATAGTTDAGAIDPLKKIREITTKYGAWMHIDAAWGGALILSNDYRDMLDGIELSDSITLDFHKHYFQSISCGAFLLKDEANYRFMHYEAEYLNSAYDEEHGVPNLVSKSLQTTRRFDALKLWMTVEALGEELYGSMIDHGVKLTREVADYIKATEGLELLVEPQFASVLFRVVPDGYPVELIDTLNQNVADELFARGDANIGVTKVGAVQSLKMTTLSPVATLENVKGLLAMVLAESDRIKDSIAAGTYVPAID
B6: in “purified protein [6]” (setting [9]), the Km turned out to be 710 ± 113 µM, the turnover number (kcat) was found to be 0.009 s⁻¹ and the kcat/Km is 13 M⁻¹ s⁻¹. For the same molecule, in “purified protein [7]”, the Km is 1585 ± 257 µM, the kcat turned out to be 12.1 ± 1.1 s⁻¹ and the kcat/Km is 7600 M⁻¹ s⁻¹.
